Reference: patent publication US20210032350A1 (Memorial Sloan Kettering, published 2021)

Tests used:
mouse Galectin-3 = target: T1, mouse Galectin-3 (mouse, UniProt P16110 2-264, limits assumed); test: ELISA screening (Table 1, antigen target)
T1 construct: also called mLGALS3; mouse LGALS3

human Galectin-3 = target: T2, human Galectin-3 (human, UniProt P17931 1-250); test: SPR, antibody captured on anti-mouse Fc surface, 8-pt 2-fold dilution series of LGALS3 from 500 nM
T2 construct: In the laminin assay it was biotin-labelled; also called LGALS3; Gal3
T2 sequence (P17931 whole entry): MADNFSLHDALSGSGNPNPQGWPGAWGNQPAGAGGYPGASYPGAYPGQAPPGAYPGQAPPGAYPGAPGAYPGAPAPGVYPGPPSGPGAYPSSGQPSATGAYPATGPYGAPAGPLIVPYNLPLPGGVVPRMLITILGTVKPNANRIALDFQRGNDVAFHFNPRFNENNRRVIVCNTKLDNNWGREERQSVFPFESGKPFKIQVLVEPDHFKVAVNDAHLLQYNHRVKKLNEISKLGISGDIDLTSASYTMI
Description: SPR: Antibody binding to LGALS3 was confirmed by surface plasmon resonance (SPR) assay. The antibody was captured on an anti-mouse Fc surface and an 8-pt. 2-fold dilution series of LGALS3 was flown over the antibody starting at 500 nM.

T1 sequence (P16110 2-264 limits assumed): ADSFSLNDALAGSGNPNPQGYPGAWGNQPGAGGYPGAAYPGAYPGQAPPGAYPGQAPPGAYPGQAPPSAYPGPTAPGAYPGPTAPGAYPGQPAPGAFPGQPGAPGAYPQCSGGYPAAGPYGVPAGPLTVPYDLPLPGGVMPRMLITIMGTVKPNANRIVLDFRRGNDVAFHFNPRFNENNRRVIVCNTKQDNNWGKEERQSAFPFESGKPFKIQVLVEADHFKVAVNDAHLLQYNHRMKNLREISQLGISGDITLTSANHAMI

binding result (mouse Galectin-3): binds
Kd (human Galectin-3): 14.6 nM
B1: 112516.14D11.2D2 (antibody, V domains shown)
VH: QVQLKESGPGLVAPSQSLSITCTISGFSLSSYGVHWVRQPPGKGLEWLVVIWSDGSTTYNSTLKSRLSISKDNSKSQVFLKMNSLQTDDTAMYYCARHISNYGTMDYWGQGTSVTVS
VL: DIQMTQTTSSLSASLGDRVTISCRASQDIRNYLNWYQQKPDGSIKLLIYYTSRLHSGVPSRFSGSGSGTDYSLTIRNLEQEDIATYFCQHFNTLPPTFGGGTKLEIK
